Measurements from article PMC5314338, “Structure of a LOV protein in apo-state and implications for construction of LOV-based optical tools” (Scientific Reports, 2017).

Molecular target: W619_1-LOV, short LOV protein from Pseudomonas putida (Pseudomonas putida)
Test: crystal structure; apo-state; sitting drops grown in the dark, 100 mM MES pH 6.0-6.3, 1 M ammonium sulfate, 14 °C; space group I4(1), two molecules per asymmetric unit

## W619_1-LOV, short LOV protein from Pseudomonas putida (natural protein)
  stoichiometry N: 2
